# Laboratory results as given in patent publication US7148006.
# Target: wild type human PKR, full length (aa 1-551) (human) (UniProt P19525)
# Assay: cell-based or functional assay
# Sequence of wild type human PKR, full length (aa 1-551) (human) (P19525 whole entry, the tested form may be a part): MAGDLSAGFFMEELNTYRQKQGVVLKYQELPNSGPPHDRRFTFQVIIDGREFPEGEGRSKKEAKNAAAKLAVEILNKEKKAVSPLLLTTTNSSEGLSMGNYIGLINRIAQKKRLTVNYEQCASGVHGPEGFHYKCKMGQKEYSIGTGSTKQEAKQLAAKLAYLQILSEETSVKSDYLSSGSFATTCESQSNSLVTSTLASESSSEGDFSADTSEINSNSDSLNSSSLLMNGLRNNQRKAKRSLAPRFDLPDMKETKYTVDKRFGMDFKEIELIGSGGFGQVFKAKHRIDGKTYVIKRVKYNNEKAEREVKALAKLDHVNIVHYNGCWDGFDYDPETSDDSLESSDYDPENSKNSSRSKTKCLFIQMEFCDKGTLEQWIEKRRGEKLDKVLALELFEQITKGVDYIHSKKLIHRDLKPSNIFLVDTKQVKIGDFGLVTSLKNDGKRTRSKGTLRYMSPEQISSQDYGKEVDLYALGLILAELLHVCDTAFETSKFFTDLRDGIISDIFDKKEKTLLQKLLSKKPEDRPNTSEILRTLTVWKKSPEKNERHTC
substance,measurement,value
"NS5A 1b-2 (untagged, expressed from pYES-NS5A 1b-2)",fold decrease in plating efficiency of yeast RY1-1 on galactose medium,10 to 100 fold
